# Columns and labels:
# N[C@@H](CC=O)C(=O)O = test: purified protein
# [1] = biological target: T1, CLsoDHDPS (dihydrodipicolinate synthase) (Candidatus Liberibacter solanacearum, UniProt A0A0F4VK59); assay type: binding
# T1 construct: gene dapA
# [2] = biological target: T1, CLsoDHDPS (dihydrodipicolinate synthase); test: biochemical
# [3] = biological target: T1, CLsoDHDPS (dihydrodipicolinate synthase); test: biochemical; remark: listed apart in the source
# T1 sequence (A0A0F4VK59 1-296): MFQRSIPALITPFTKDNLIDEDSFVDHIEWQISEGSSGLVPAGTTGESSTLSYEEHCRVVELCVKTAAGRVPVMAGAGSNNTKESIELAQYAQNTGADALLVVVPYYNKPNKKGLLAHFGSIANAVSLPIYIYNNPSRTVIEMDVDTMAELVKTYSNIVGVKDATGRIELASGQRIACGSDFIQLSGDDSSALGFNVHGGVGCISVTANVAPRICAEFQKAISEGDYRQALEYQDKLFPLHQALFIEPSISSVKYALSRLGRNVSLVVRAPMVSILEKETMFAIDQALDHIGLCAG
compound,measurement,setting,value
CLsoDHDPS (dihydrodipicolinate synthase) (Candidatus Liberibacter solanacearum),Km,N[C@@H](CC=O)C(=O)O,33 ± 3 µM
same,kcat,N[C@@H](CC=O)C(=O)O,6 ± 0.2 s⁻¹
same,kcat/Km,N[C@@H](CC=O)C(=O)O,180000 M⁻¹ s⁻¹
"O=CCCC(=O)O [SSA, succinic semi‐aldehyde]",X-ray crystal structure (1.93 Å) with pyruvate,[1],"continuous density between Lys162, pyruvate, and succinic semi‐aldehyde such that the carbon–carbon bond between these substrates has formed"
NCCCC[C@H](N)C(=O)O [lysine],Ki,[2],121 ± 5 µM
CC(=O)C(=O)O [pyruvate],Kd,[3],2 ± 0.7 µM

# Reference: paper PMC11201819 (Protein Science : A Publication of the Protein Society, 2024)
